Experimental data from patent US20240294650A1 (Alector, published 2024).

T1: recombinant murine MerTK extracellular domain (mouse, UniProt Q60805 19-497)
T1 construct: also called Mouse MerTK; murine MerTK ECD; not shown: polyHis or TEVS/Thrombin/murine IgG2a-Fc tag
T1 sequence: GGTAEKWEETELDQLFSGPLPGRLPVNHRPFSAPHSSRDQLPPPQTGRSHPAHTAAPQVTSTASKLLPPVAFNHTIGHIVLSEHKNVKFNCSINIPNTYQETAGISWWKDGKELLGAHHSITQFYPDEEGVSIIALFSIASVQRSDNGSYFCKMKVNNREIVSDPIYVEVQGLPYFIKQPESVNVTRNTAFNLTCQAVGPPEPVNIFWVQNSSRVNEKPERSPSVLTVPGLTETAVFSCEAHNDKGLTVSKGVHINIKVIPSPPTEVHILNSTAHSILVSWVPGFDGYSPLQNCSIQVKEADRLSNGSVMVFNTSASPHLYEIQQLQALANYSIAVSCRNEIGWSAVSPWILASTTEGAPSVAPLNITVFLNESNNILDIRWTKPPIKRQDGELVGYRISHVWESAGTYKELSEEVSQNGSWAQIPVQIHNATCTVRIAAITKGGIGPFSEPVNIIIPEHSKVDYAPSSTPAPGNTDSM

T2: MerTK N-terminal ECD Half-and-half chimera (human)
T2 construct: tested as culture supernatant; also called MerTK N-term half-and-half chimera; MerTK N-terminal ECD (NT-Ig1-Ig2) + Axl C-terminal ECD (FN1-FN2-JM)
T2 chain: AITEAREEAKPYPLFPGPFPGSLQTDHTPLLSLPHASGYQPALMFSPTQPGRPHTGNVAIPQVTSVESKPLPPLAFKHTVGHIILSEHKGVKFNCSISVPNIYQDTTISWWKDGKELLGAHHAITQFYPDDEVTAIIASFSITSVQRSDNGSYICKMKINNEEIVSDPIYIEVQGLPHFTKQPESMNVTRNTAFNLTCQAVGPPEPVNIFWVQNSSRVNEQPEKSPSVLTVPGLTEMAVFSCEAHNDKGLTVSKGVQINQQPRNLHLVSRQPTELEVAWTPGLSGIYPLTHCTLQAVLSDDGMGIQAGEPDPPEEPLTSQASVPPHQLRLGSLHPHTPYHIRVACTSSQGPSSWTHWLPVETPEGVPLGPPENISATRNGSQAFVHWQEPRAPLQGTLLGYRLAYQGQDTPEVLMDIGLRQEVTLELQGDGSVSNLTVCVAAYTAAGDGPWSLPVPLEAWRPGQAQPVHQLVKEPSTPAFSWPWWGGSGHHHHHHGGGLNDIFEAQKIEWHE


Columns and labels:
[1] = biological target: T1, recombinant murine MerTK extracellular …; assay: SPR Carterra LSA, Ab immobilised
Method in brief: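 Surface plasmon resonance on a Carterra LSA measured affinity of immobilized antibodies for human, cynomolgus or mouse MerTK ectodomain diluted in HBS-TE with 0.5 mg/ml BSA. Analytes flowed over the full array, surfaces were regenerated with Protein A/G Elution Buffer plus 1M NaCl or 10 mM Glycine pH 2.5, and spots binding under 25 RU were discarded before kinetic fitting.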

[2] = biological target: T1, recombinant murine MerTK extracellular …; assay: SPR Carterra LSA
[3] = biological target: T2, MerTK N-terminal ECD Half-and-half …; assay: SPR, construct supernatant over immobilised Ab
Description: Binding of anti-MerTK antibodies of the present disclosure to these domain-swapped chimera or deletion mutants was tested by Surface Plasmon Resonance (SPR) using Carterra LSA. Purified anti-MerTK antibodies were immobilized in duplicate on a HC30M chip (Carterra) by amine coupling, following the manufacturer's instructions (described previously).
Supernatants containing the constructs were diluted 1:1 with running buffer containing 0.5 mg/mL BSA (HBS-TE, Carterra; BSA, Sigma) and injected over the immobilized antibodies. The surface was regenerated with 10 mM Glycine pH2.0 after each construct injection. Sensorgrams were analyzed using Carterra Epitope software to identify patterns of construct binding. Loss of binding to MerTK constructs with domains deleted or swapped in from Axl and/or gain of binding to Axl constructs with MerTK domains swapped in were evaluated. Data from these studies were used to construct a domain binding map for anti-MerTK antibodies and their binding to various domains of human MerTK.

Binder | Kd [1] | Ratio of KD for Mouse vs Human MerTK [2] | binding result [3]
MTK-224 (antibody, human IgG1, V domains shown) VH: QVQLQQPGAELVKPGASVKVSCKASGYTFTSYWMHWVKQRPGQGLEWIGRIHPFDSDTNYNQKFKGKATLTVDKSSSTAYMQLSSLTSEDSAVYYCSIAGFAYWGQGTLVTVSA VL: DIVMTQSPATLSVTPGDRVSLSCRASQIISDYLNWYQQKSHESPRLLIKYASQSISGIPSRFSGSGSGSDFTLSINSVEPEDVGVYYCQNGHSFPLTFGAGTKLELK | 430 nM | 64.2 ratio | no binding
MTK-203 (antibody, human IgG1, V domains shown) VH: QVQLQQPGAELVKPGASVKVSCKASGYTFTNYWMHWVKQRPGQGLEWIGRIHPFDTETNDNQKFKGKATLTVDKSSSTAYMQLSSLTSEDSAVYYCVIPANGGFAYWGQGTLVTVSA VL: ETTVTQSPASLSVATGEKVTIRCITSTDIGDDMNWYQQKPGEPPKVLISEGNSLRPGVPSRFSSSGYGTDFVFTIENTLSEDVADYFCLQSDNLPLTFGSGTKLEIK | 400 nM | 12.5 ratio | no binding

The remaining binders from weak to strong by Kd [1], led by results:

Kd [1] | Ratio of KD for Mouse vs Human MerTK [2] | binding result [3] | Binder
460 nM | 35.4 ratio | no binding | MTK-209 (antibody, human IgG1, V domains shown) VH: QVQLQQPGAELVKPGASVKVSCKASGYTFTNYWIHWVKQRPGQGLEWIGRIHPFDSEPNYNQKFKGKATLTVDKSSSTAYMHLTSLTSEDSAVYYCALASFAYWGQGTLVTVSA VL: ETTVTQSPASLSMAMGEKATIRCITSTDIDDKMNWYQQKPGKPPKLLISAGNTLRPGVPSRFSSSGYGTDFVLTVENMLSEDVADYYCLQGGALPLTFGSGTKLEIK
29 nM | 3.5 ratio | no binding | MTK-230 (antibody, human IgG1, V domains shown) VH: EVQLQQSGPELVKPGASVRIPCKASGYTFSDYNMDWVKQSHGKSLEWIGNINPNIGGTIYSQKFKGKATLTVDKSSSTAYMELRSLTSEDTAVYYCARGDYGFASWGQGTLVTVSA VL: DIVLTQSPASLTVSLGQRATISCRASRSVSTSGYSYMHWYQQKPGQPPKLLIYLASNLESGVPARFSGSRSGTDFTLNIHPVEEEDAATYYCQHSREYPFTFGSGTKLEIK
